*1 amine or outer side, *2 acyl side, *3 side chain or, on linkers, in order; H or OH if unused. Where a SMILES comes first, the peptide text is derived from it. Bridges are numbered along the chain shown (N, C = ends). Where no end group is shown, it is not given here. sulfonated dichloro‑BODIPY dye = Sulfonated dichloro-BODIPY dye that cyclises the two flanking Cys through two SNAr reactions; sulfonated dichloro‑BODIPY = sulfonated dichloro-BODIPY dye attached to the two flanking Cys by SNAr reactions; X1 = COc1ccc(C2=C3C=C(S(=O)(=O)O)C([*:2])=[N+]3[B-](F)(F)n3c2cc(S(=O)(=O)O)c3[*:1])cc1
Columns and labels:
[1] = target: TrkA-expressing cells (HeLa+A) (UniProt P04629); assay: Cell survival assay in serum-free media, TrkA-expressing cells (HeLa+A); format: cell-based; details: Figure 8 summary
Description: Cells were seeded at a density of 2 × 10^3 cells/well in complete media in 96-well plates and incubated for 24 h to allow cells to adhere. Cells were washed with DPBS, and then, media were swapped for serum-free media of the same type as the complete media. […] Cells were suspended and live cells counted using flow cytometry (CytoFLEX LX).

[2] = target: TrkB-expressing cells (HEK+B) (UniProt Q16620); assay: Cell survival assay in serum-free media, TrkB-expressing cells (HEK+B); format: cell-based; details: Figure 8 summary
Description: Loop mimics 5 were screened in cell survival assays to evaluate their efficacy in stimulating Trk receptors (Figure 2). Mimics were assayed for the ability to rescue cells from cell death when incubated in serum-free media (SFM) in the absence of NTs (a test for “agonism”) or in the presence of a suboptimal NT concentration (a test for NT “modulation”). Simultaneously, these assays may confirm test mimics are not cytotoxic at lower doses (though cytotoxicity assays were also performed up to higher doses, Figure S1). […] All the test compounds were screened at 50 μM concentrations initially, and then, dose response curves were measured for the hits (Table 1 and Figure 3).
We were forced to use transfectants in different cell lines (HeLa, HEK-293, NIH-3T3 expressing TrkA, B, and C, respectively) due to difficulties in obtaining transfected cells derived from a single wild type; however, none of the cells used express TrkA-C prior to transfection. Throughout this paper, HeLa cells are denoted as “HeLa”, and their TrkA transfectants are “HeLa+A”. Similarly, HEK-293 cells are “HEK”; their TrkB transfectants are HEK+B. NIH-3T3 cells are “NIH”, and their TrkC transfectants are “NIH+C”.
Cells were seeded at a density of 2 × 10^3 cells/well in complete media in 96-well plates and incubated for 24 h to allow cells to adhere. Cells were washed with DPBS, and then, media were swapped for serum-free media of the same type as the complete media. Cells were then treated with 50 μM compound either alone or in conjunction with suboptimal neurotrophin corresponding to the Trk receptor expressed for 48 h. Cells were washed with DPBS buffer twice and detached from the plate with 50 μL of trypsin for 3 min at 37 °C. Trypsinization was quenched with 100 μL of complete media. Cells were suspended and live cells counted using flow cytometry (CytoFLEX LX). Cell survival was normalized from cell count (CC) readings relative to optimal neurotrophin (NT = 100%) and DMSO (0%) utilizing GraphPad Prism 10.2, followed by statistical analysis via one-way ANOVA and Dunnett’s t test compared to the DMSO control. Dose response versions of this assay were conducted following the same procedure, but the data was analyzed in GraphPad Prism 10.2 using the nonlinear fit: {agonist} vs response – variable slope (four parameters) function.

[3] = target: TrkC-expressing cells (NIH+C) (UniProt Q16288); assay: Cell survival assay in serum-free media, TrkC-expressing cells (NIH+C); format: cell-based; details: Figure 8 summary
Description: Loop mimics 5 were screened in cell survival assays to evaluate their efficacy in stimulating Trk receptors (Figure 2). Mimics were assayed for the ability to rescue cells from cell death when incubated in serum-free media (SFM) in the absence of NTs (a test for “agonism”) or in the presence of a suboptimal NT concentration (a test for NT “modulation”). Simultaneously, these assays may confirm test mimics are not cytotoxic at lower doses (though cytotoxicity assays were also performed up to higher doses, Figure S1). […] All the test compounds were screened at 50 μM concentrations initially, and then, dose response curves were measured for the hits (Table 1 and Figure 3). […]
Cells were seeded at a density of 2 × 10^3 cells/well in complete media in 96-well plates and incubated for 24 h to allow cells to adhere. […] Cells were suspended and live cells counted using flow cytometry (CytoFLEX LX). Cell survival was normalized from cell count (CC) readings relative to optimal neurotrophin (NT = 100%) and DMSO (0%) utilizing GraphPad Prism 10.2, followed by statistical analysis via one-way ANOVA and Dunnett’s t test compared to the DMSO control. Dose response versions of this assay were conducted following the same procedure, but the data was analyzed in GraphPad Prism 10.2 using the nonlinear fit: {agonist} vs response – variable slope (four parameters) function.

[4] = target: T1, TrkC (on NIH3T3-TrkC transfectants) (UniProt Q16288 32-839); assay: cell-surface fluorescence binding on live cells (plate reader); serial dilution of the intrinsically fluorescent compound in serum-free media on adherent Trk-transfected cells, 2.5 h, washed with DPBS, dissolved in 1% SDS, ex 540/25 nm, em 620/40 nm; fluorescence of the Trk-negative parent cells subtracted; one site - specific binding fit; details: one partner purified
T1 construct: TrkC receptor expressed on transfected NIH-3T3 cells; also called NIH+C; NIH-TrkC; source: NIH-3T3, transfected (NIH3T3-TrkC), on live cells

[5] = target: T1, TrkC (on NIH3T3-TrkC transfectants); assay: cell-based or functional assay
[6] = target: T2, TrkA (on HeLa-TrkA transfectants) (UniProt P04629 33-796); assay: cell-surface fluorescence binding on live cells (plate reader); serial dilution of the intrinsically fluorescent compound in serum-free media on adherent Trk-transfected cells, 2.5 h, washed with DPBS, dissolved in 1% SDS, ex 540/25 nm, em 620/40 nm; fluorescence of the Trk-negative parent cells subtracted; one site - specific binding fit; details: one partner purified
T2 construct: TrkA receptor expressed on transfected HeLa cells; also called HeLa+A; source: HeLa, transfected (HeLa-TrkA), on live cells

[7] = target: T2, TrkA (on HeLa-TrkA transfectants); assay: cell-based or functional assay
[8] = target: T3, TrkB (on HEK293-TrkB transfectants) (UniProt Q16620 32-822); assay: cell-surface fluorescence binding on live cells (plate reader); serial dilution of the intrinsically fluorescent compound in serum-free media on adherent Trk-transfected cells, 2.5 h, washed with DPBS, dissolved in 1% SDS, ex 540/25 nm, em 620/40 nm; fluorescence of the Trk-negative parent cells subtracted; one site - specific binding fit; details: one partner purified
T3 construct: TrkB receptor expressed on transfected HEK-293 cells; also called HEK+B; HEK-TrkB; source: HEK-293, transfected (HEK293-TrkB), on live cells

[9] = target: T3, TrkB (on HEK293-TrkB transfectants); assay: cell-based or functional assay
[10] = target: T1, TrkC (on NIH3T3-TrkC transfectants); assay: cell-based or functional assay; remark: listed apart in the source
[11] = target: T2, TrkA (on HeLa-TrkA transfectants); assay: cell-based or functional assay; remark: listed apart in the source

T2 sequence (P04629 33-796): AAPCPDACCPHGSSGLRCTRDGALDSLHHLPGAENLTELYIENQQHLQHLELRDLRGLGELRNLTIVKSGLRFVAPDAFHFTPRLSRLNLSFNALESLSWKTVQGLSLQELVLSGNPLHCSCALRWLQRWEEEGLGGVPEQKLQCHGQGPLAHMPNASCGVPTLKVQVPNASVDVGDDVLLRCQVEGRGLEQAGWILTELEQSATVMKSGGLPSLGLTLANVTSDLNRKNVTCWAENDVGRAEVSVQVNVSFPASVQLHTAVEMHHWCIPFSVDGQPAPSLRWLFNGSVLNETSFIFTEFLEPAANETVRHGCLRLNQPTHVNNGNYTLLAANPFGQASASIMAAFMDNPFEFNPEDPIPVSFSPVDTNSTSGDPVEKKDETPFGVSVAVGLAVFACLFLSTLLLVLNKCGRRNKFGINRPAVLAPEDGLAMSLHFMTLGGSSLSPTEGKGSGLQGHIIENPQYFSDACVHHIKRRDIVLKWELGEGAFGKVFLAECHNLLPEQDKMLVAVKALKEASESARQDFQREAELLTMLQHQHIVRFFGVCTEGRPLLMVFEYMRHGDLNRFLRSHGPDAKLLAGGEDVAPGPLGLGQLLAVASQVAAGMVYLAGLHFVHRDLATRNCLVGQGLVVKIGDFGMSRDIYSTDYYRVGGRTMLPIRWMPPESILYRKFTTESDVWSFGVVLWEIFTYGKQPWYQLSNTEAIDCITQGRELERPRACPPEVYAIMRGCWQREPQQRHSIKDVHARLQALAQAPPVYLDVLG
TrkB-expressing cells (HEK+B), sequence (Q16620 32-822): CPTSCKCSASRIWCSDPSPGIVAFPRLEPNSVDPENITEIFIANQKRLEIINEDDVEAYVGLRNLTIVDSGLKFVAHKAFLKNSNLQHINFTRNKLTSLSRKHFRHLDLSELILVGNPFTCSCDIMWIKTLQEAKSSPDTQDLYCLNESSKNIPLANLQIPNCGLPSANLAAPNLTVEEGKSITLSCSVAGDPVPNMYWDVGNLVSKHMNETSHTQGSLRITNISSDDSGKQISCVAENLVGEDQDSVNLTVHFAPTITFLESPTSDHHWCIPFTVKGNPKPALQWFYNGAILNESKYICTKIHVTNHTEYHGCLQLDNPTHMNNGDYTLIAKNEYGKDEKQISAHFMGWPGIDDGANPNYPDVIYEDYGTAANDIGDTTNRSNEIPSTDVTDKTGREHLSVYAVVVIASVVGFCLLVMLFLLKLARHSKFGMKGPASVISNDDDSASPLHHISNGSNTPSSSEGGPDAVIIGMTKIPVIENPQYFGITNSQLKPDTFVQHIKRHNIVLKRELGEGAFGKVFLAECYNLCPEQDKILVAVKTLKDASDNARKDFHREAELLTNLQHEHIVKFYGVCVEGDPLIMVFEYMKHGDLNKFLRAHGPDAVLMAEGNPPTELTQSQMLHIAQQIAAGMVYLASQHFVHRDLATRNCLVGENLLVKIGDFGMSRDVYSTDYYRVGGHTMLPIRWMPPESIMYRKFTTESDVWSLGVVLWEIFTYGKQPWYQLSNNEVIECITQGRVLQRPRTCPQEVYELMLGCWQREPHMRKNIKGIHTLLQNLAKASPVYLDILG
T3 sequence (Q16620 32-822): as above
T1 sequence (Q16288 32-839): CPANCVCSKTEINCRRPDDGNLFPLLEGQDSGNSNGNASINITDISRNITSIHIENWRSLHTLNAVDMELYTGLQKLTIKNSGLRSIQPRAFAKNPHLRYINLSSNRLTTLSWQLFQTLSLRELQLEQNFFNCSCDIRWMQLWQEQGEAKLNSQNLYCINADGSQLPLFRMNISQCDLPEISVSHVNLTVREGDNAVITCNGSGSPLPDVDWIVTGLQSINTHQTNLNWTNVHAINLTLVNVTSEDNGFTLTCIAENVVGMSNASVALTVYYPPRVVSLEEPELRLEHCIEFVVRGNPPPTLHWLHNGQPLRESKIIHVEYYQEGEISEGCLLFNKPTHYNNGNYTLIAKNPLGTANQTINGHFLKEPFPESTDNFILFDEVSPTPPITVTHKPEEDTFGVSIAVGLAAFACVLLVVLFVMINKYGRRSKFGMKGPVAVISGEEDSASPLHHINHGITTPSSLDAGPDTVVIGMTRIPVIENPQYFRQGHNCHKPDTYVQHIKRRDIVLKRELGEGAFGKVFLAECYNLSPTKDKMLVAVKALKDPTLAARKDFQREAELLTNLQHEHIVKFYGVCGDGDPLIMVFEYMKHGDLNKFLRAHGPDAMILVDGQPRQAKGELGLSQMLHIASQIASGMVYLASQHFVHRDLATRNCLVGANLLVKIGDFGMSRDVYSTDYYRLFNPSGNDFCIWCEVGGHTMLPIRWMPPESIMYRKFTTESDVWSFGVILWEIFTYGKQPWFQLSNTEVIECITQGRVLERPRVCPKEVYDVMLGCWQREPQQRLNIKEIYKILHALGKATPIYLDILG
TrkC-expressing cells (NIH+C), sequence (Q16288 32-839): as above
TrkA-expressing cells (HeLa+A), sequence (P04629 33-796): as the sequence (P04629 33-796) above

COc1ccc(C2=C3C=C(S(=O)(=O)O)C4=[N+]3[B-](F)(F)n3c2cc(S(=O)(=O)O)c3SC[C@H](NC(C)=O)C(=O)N[C@@H](CC(=O)O)C(=O)N[C@@H](CCC(=O)O)C(=O)N[C@@H](CCCCN)C(=O)N[C@@H](CCC(N)=O)C(=O)N[C@H](C(N)=O)CS4)cc1 [5a(iii)m] (Ac-CDEKQC-NH2; linker 1-6 via X1; N-terminus and C-terminus assumed)
result (Trk activity assigned) [1]: TrkA modulator

COc1ccc(C2=C3C=C(S(=O)(=O)O)C4=[N+]3[B-](F)(F)n3c2cc(S(=O)(=O)O)c3SC[C@H](NC(C)=O)C(=O)N[C@@H](CC(=O)O)C(=O)N[C@@H](CCSC)C(=O)N[C@@H](CO)C(=O)NCC(=O)N[C@H](C(N)=O)CS4)cc1 [5b(i)] (Ac-CDMSGC-NH2; linker 1-6 via X1; N-terminus and C-terminus assumed)
result (Trk activity assigned) [2]: TrkB agonist

COc1ccc(C2=C3C=C(S(=O)(=O)O)C4=[N+]3[B-](F)(F)n3c2cc(S(=O)(=O)O)c3SC[C@H](NC(C)=O)C(=O)N[C@@H](C(C)C)C(=O)N[C@@H](CO)C(=O)N[C@@H](CCCCN)C(=O)NCC(=O)N[C@H](C(N)=O)CS4)cc1 [5b(ii)] (Ac-CVSKGC-NH2; linker 1-6 via X1; N-terminus and C-terminus assumed)
result (Trk activity assigned) [2]: TrkB agonist

CC[C@H](C)[C@@H]1NC(=O)[C@H](CC(=O)O)NC(=O)[C@@H](NC(C)=O)CSc2c(S(=O)(=O)O)cc3n2[B-](F)(F)[N+]2=C(SC[C@@H](C(N)=O)NC(=O)CNC(=O)[C@H](CCCNC(=N)N)NC1=O)C(S(=O)(=O)O)=CC2=C3c1ccc(OC)cc1 [5c(i)] (Ac-CDIRGC-NH2; linker 1-6 via X1; N-terminus and C-terminus assumed)
result (Trk activity assigned) [3]: TrkB/C agonist | result (Trk activity assigned) [2]: TrkB/C agonist

COc1ccc(C2=C3C=C(S(=O)(=O)O)C4=[N+]3[B-](F)(F)n3c2cc(S(=O)(=O)O)c3SC[C@H](NC(C)=O)C(=O)N[C@@H](CCC(=O)O)C(=O)N[C@@H](CC(N)=O)C(=O)N[C@@H](CC(N)=O)C(=O)N[C@@H](CCCCN)C(=O)N[C@H](C(N)=O)CS4)cc1 [5c(iii)] (Ac-CENNKC-NH2; linker 1-6 via X1; N-terminus and C-terminus assumed)
result (Trk activity assigned) [3]: TrkC agonist

CENNKC (linker 1-6 via sulfonated dichloro‑BODIPY dye) [cyclo-organopeptide 5c(iii)]
Kd [4]: 91 ± 4 nM | EC50 of survival of NIH3T3-TrkC cells in serum-free media, with suboptimal neurotrophin (0.2 nM NT-3) [5]: 0.9 µM | EC50 of survival of NIH3T3-TrkC cells in serum-free media, without NT [5]: 0.8 µM

CDEKQC (linker 1-6 via sulfonated dichloro‑BODIPY) [cyclo-organopeptide 5a(iii)m]
Kd [6]: 120 ± 3 nM | EC50 of survival of HeLa-TrkA cells in serum-free media, with suboptimal neurotrophin (0.2 nM NGF) [7]: 0.5 µM | EC50 of survival of HeLa-TrkA cells in serum-free media, without NT [7]: 2.4 µM

B1: cyclo-organopeptide 5c(i) (peptide)
peptide: CDIRGC
modifications: linker 1-6 via sulfonated dichloro‑BODIPY dye
notes: flanking Cys of the CX1X2X3X4C-peptide; also called NT-3 loop (i) mimic; source: synthetic peptide (Fmoc SPPS), cyclised onto BODIPY, preparative HPLC
Kd [4]: 97 ± 4 nM | Kd [8]: 43 ± 2 nM | EC50 of survival of HEK293-TrkB cells in serum-free media, with suboptimal neurotrophin (0.6 nM BDNF) [9]: 2.2 µM | EC50 of survival of HEK293-TrkB cells in serum-free media, without NT [9]: 0.1 µM

CVSKGC (linker 1-6 via sulfonated dichloro‑BODIPY dye) [cyclo-organopeptide 5b(ii)]
Kd [8]: 115 ± 66 nM | EC50 of survival of HEK293-TrkB cells in serum-free media, with suboptimal neurotrophin (0.6 nM BDNF) [9]: 2.8 µM | EC50 of survival of HEK293-TrkB cells in serum-free media, without NT [9]: 0.9 µM

B2: cyclo-organopeptide 5c(ii) (peptide)
peptide: CTQNSC
modifications: linker 1-6 via sulfonated dichloro‑BODIPY dye
notes: flanking Cys of the CX1X2X3X4C-peptide; also called NT-3 loop (ii) mimic; source: synthetic peptide (Fmoc SPPS), cyclised onto BODIPY, preparative HPLC
Kd [6]: 91 ± 2 nM | IC50 of the decrease of pAKT signalling (ELFI) in NIH+C cells when competed with 10 ng/mL NT; pair blocked: NT-3 and TrkC [10]: 7 μM | IC50 of the decrease of pMAPK signalling (ELFI) in NIH+C cells when competed with 10 ng/mL NT; pair blocked: NT-3 and TrkC [10]: 35 μM | IC50 of the decrease of pAKT signalling (ELFI) in PC12 cells (rat, endogenous TrkA) when competed with 10 ng/mL NT; pair blocked: NGF and TrkA [11]: 7 μM | IC50 of the decrease of pMAPK signalling (ELFI) in PC12 cells (rat, endogenous TrkA) when competed with 10 ng/mL NT; pair blocked: NGF and TrkA [11]: 7 μM | EC50 of survival of HeLa-TrkA cells in serum-free media, with suboptimal neurotrophin (0.2 nM NGF) [7]: 0.3 µM | EC50 of survival of HeLa-TrkA cells in serum-free media, without NT [7]: 4.5 µM
